Measured values reported in paper PMC12746103, “Structural insights into the exchange mechanism of a replicative DNA polymerase” (Nucleic Acids Research, 2025).
Several values for one entry are separate records, joined by “and”; a condition that tells them apart may be missing. Equal values may be shown once.

B1: T4 bacteriophage gp43(exo-) exonuclease-deficient DNA polymerase (D219A) (enzyme, bacteriophage T4)
chain: MKEFYISIETVGNNIVERYIDENGKERTREVEYLPTMFRHCKEESKYKDIYGKNCAPQKFPSMKDARDWMKRMEDIGLEALGMNDFKLAYISDTYGSEIVYDRKFVRVANCDIEVTGDKFPDPMKAEYEIDAITHYDSIDDRFYVFDLLNSMYGSVSKWDAKLAAKLDCEGGDEVPQEILDRVIYMPFDNERDMLMEYINLWEQKRPAIFTGWNIEGFAVPYIMNRVKMILGERSMKRFSPIGRVKSKLIQNMYGSKEIYSIDGVSILDYLDLYKKFAFTNLPSFSLESVAQHETKKGKLPYDGPINKLRETNHQRYISYNIIDVESVQAIDKIRGFIDLVLSMSYYAKMPFSGVMSPIKTWDAIIFNSLKGEHKVIPQQGSHVKQSFPGAFVFEPKPIARRYIMSFDLTSLYPSIIRQVNISPETIRGQFKVHPIHEYIAGTAPKPSDEYSCSPNGWMYDKHQEGIIPKEIAKVFFQRKDWKKKMFAEEMNAEAIKKIIMKGAGSCSTKPEVERYVKFSDDFLNELSNYTESVLNSLIEECEKAATLANTNQLNRKILINSLYGALGNIHFRYYDLRNATAITIFGQVGIQWIARKINEYLNKVCGTNDEDFIAAGDTDSVYVCVDKVIEKVGLDRFKEQNDLVEFMNQFGKKKMEPMIDVAYRELCDYMNNREHLMHMDREAISCPPLGSKGVGGFWKAKKRYALNVYDMEDKRFAEPHLKIMGMETQQSSTPKAVQEALEESIRRILQEGEESVQEYYKNFEKEYRQLDYKVIAEVKTANDIAKYDDKGWPGFKCPFHIRGVLTYRRAVSGLGVAPILDGNKVMVLPLREGNPFGDKCIAWPSGTELPKEIRSDVLSWIDHSTLFQKSFVKPLAGMCESAGMDYEEKASLDFLFG
notes: DNA polymerase gp43 of bacteriophage T4 with the exonuclease-deficient mutation D219A; also called gp43 polymerase; T4 polymerase; source: E. coli BL21(DE3), purified (chitin resin with intein-mediated cleavage, heparin)
B2: T4 bacteriophage gp45 sliding clamp (natural protein, bacteriophage T4)
chain: MKLSKDTTALLKNFATINSGIMLKSGQFIMTRAVNGTTYAEANISDVIDFDVAIYDLNGFLGILSLVNDDAEISQSEDGNIKIADARSTIFWPAADPSTVVAPNKPIPFPVASAVTEIKAEDLQQLLRVSRGLQIDTIAITVKEGKIVINGFNKVEDSALTRVKYSLTLGDYDGENTFNFIINMANMKMQPGNYKLLLWAKGKQGAAKFEGEHANYVVALEADSTHDF
notes: sliding clamp gp45 of bacteriophage T4, wild type, homotrimeric ring; also called wt-gp45 clamp; gp45 clamp; source: E. coli BL21(DE3), pET26b, purified (hydroxyapatite, anion exchange)
B3: dimer-interface mutant gp43(exo-) polymerase (D75R, Q430E, K432E in gp43(exo-) D219A) (enzyme, bacteriophage T4)
chain: MKEFYISIETVGNNIVERYIDENGKERTREVEYLPTMFRHCKEESKYKDIYGKNCAPQKFPSMKDARDWMKRMERIGLEALGMNDFKLAYISDTYGSEIVYDRKFVRVANCDIEVTGDKFPDPMKAEYEIDAITHYDSIDDRFYVFDLLNSMYGSVSKWDAKLAAKLDCEGGDEVPQEILDRVIYMPFDNERDMLMEYINLWEQKRPAIFTGWNIEGFAVPYIMNRVKMILGERSMKRFSPIGRVKSKLIQNMYGSKEIYSIDGVSILDYLDLYKKFAFTNLPSFSLESVAQHETKKGKLPYDGPINKLRETNHQRYISYNIIDVESVQAIDKIRGFIDLVLSMSYYAKMPFSGVMSPIKTWDAIIFNSLKGEHKVIPQQGSHVKQSFPGAFVFEPKPIARRYIMSFDLTSLYPSIIRQVNISPETIRGEFEVHPIHEYIAGTAPKPSDEYSCSPNGWMYDKHQEGIIPKEIAKVFFQRKDWKKKMFAEEMNAEAIKKIIMKGAGSCSTKPEVERYVKFSDDFLNELSNYTESVLNSLIEECEKAATLANTNQLNRKILINSLYGALGNIHFRYYDLRNATAITIFGQVGIQWIARKINEYLNKVCGTNDEDFIAAGDTDSVYVCVDKVIEKVGLDRFKEQNDLVEFMNQFGKKKMEPMIDVAYRELCDYMNNREHLMHMDREAISCPPLGSKGVGGFWKAKKRYALNVYDMEDKRFAEPHLKIMGMETQQSSTPKAVQEALEESIRRILQEGEESVQEYYKNFEKEYRQLDYKVIAEVKTANDIAKYDDKGWPGFKCPFHIRGVLTYRRAVSGLGVAPILDGNKVMVLPLREGNPFGDKCIAWPSGTELPKEIRSDVLSWIDHSTLFQKSFVKPLAGMCESAGMDYEEKASLDFLFG
notes: DNA polymerase gp43 of bacteriophage T4 with D219A (exo-) and the three dimer-interface mutations D75R, Q430E and K432E; PDB 9EA3 holds this mutant; the other three entries hold its parent m1; also called dimer-interface mutant polymerase; mutant polymerase; source: E. coli BL21(DE3), purified (chitin resin with intein-mediated cleavage, heparin)

How the values were obtained:
[1] = target: B2; test: cryo-EM structure; 10 μM gp45 clamp mixed with 5 μM primer/template DNA (20 mM HEPES pH 7.5, 150 mM KOAc, 10 mM MgCl2, 0.5 mM ddTTP, 2 mM DTT; 10 min, 30°C), then 6 μM gp43 polymerase added (10 min room temperature, 1 h on ice); no clamp loader; conditions: both partners purified
[2] = target: the molecule itself; test: as above
[3] = target: B1; test: as above; conditions: both partners purified
[4] = target: B3; test: as above; conditions: both partners purified
[5] = target: T1, dimer-interface mutant gp43(exo-) DNA polymerase;gp45 sliding clamp (wt) (T4 bacteriophage;T4 bacteriophage, UniProt P04415;P04525 1-898;1-228, D219A;D75R;Q430E;K432E|); test: cryo-EM; ddTTP; one-polymerase holoenzyme, 4.0 A; cryo-EM assembly: 1.2 polymerase : 2 clamp : 1 DNA (molar) with ddTTP; proteins purified in HEPES pH 7.8 buffers; assembly salt and temperature not given in material; conditions: protein: recombinant;recombinant; tags: self-cleaving intein chitin tag, removed;; copies: 1;3; primer-template; 13 nt 5' template overhang, 25 bp duplex
T1 sequence 1: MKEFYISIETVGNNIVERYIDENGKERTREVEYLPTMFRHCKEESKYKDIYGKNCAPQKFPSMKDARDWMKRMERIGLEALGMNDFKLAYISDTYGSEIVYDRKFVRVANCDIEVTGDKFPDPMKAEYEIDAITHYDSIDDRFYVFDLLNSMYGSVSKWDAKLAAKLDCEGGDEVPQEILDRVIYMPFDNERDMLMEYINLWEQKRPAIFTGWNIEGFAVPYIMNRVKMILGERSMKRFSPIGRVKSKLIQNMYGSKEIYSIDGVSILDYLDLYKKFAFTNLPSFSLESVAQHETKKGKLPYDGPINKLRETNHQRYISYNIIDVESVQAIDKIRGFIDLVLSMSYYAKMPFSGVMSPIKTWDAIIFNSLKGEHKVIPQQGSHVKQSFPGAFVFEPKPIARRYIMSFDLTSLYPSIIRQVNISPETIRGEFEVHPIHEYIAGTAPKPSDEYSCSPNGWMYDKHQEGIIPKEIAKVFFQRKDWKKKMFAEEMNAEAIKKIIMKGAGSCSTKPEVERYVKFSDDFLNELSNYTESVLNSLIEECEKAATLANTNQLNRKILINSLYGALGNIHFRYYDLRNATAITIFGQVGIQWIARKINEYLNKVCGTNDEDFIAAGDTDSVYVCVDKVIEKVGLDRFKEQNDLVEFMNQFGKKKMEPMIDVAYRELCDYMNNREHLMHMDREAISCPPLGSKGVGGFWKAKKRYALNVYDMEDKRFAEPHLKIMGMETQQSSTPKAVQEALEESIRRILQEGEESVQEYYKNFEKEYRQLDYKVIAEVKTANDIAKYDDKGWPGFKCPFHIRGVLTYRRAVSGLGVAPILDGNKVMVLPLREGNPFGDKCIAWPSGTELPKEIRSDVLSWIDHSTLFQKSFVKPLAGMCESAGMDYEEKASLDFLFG
T1 sequence 2: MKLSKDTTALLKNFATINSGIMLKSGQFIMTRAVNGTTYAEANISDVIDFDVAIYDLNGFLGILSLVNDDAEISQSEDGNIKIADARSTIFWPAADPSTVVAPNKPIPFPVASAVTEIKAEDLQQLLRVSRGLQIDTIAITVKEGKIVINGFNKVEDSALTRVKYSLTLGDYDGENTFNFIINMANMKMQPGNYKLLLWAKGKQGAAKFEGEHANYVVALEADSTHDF

[6] = target: T2, gp43(exo-) DNA polymerase;gp45 sliding clamp (wt) (T4 bacteriophage;T4 bacteriophage, UniProt P04415;P04525 1-898;1-228, D219A|); test: cryo-EM; ddTTP; two-polymerase complex state 1; DNA at right polymerase, primer end outside both active sites; cryo-EM assembly: 1.2 polymerase : 2 clamp : 1 DNA (molar) with ddTTP; proteins purified in HEPES pH 7.8 buffers; assembly salt and temperature not given in material; conditions: protein: recombinant;recombinant; chain copies: 2;3; primer-template; 13 nt 5' template overhang, 25 bp duplex
T2 sequence 1: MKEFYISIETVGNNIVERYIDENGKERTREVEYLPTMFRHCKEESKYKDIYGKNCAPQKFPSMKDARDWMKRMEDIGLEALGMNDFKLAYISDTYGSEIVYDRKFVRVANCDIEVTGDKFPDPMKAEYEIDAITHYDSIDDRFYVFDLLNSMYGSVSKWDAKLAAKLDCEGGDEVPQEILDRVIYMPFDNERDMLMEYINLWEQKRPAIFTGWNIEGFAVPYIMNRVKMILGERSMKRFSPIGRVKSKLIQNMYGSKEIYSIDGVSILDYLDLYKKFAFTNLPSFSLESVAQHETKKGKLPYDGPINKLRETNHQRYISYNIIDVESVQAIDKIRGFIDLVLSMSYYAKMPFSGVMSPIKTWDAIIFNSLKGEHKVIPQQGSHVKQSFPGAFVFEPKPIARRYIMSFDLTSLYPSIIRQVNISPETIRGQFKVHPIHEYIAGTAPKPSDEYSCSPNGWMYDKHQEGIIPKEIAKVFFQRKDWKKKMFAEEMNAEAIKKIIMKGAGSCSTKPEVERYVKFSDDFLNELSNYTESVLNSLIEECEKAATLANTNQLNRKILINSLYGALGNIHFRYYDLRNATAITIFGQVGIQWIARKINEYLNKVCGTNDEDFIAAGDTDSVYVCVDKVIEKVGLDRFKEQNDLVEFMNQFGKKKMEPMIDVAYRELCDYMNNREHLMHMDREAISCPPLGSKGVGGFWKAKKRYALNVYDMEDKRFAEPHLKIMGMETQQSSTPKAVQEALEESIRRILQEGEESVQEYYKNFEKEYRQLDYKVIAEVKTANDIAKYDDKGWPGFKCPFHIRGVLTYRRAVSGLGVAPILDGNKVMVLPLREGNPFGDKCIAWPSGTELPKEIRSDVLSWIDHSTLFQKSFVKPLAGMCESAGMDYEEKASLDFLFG
T2 sequence 2: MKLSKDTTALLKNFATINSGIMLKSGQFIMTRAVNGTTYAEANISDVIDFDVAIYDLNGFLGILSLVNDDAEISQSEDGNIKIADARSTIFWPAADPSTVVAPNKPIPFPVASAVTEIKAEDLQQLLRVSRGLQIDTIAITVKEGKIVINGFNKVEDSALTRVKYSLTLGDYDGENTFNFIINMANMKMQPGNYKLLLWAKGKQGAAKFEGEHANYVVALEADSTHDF

## B1
[1]
  stoichiometry N: 1 polymerase per clamp ring and 2 polymerases per clamp ring
[2]
  stoichiometry N: 2

## B2
[3]
  binding result: binds
[4]
  binding result: binds

## B3
[1]
  stoichiometry N: 1 polymerase per clamp ring

B4: P/T DNA (25-nt primer / 38-nt template) (dsDNA)
DNA 1: CTGCACGAATTAAGCAATTCGTAATCATGGTCATAGCT
DNA 2: AGCTATGACCATGATTACGAATTGC
modifications: primer 3'-terminal dideoxycytidine (ddC)
[5]
  binding result: binds
[6]
  binding result: binds
